Patent US20210380687A1 (ALBERT EINSTEIN COLLEGE OF MEDICINE, published 2021)

T1: human CEACAM1 (as used in Surface Plasmon Resonance) (human)
T1 chain: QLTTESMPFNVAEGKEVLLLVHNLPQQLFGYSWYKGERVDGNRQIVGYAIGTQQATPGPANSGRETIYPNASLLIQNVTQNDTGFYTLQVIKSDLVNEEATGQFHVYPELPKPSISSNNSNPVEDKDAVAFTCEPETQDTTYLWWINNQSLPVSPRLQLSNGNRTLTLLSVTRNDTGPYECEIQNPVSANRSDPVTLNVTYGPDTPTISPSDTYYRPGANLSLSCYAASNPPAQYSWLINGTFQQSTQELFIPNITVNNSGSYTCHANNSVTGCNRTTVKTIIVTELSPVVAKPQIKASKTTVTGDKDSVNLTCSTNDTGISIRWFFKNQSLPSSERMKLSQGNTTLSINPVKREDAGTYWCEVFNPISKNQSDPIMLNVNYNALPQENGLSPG

B1: monoclonal antibody 25C8 (antibody, V domains shown)
VH: QVQLQQSGAELVRPGTSVKVSCKASGYAFTIYLIEWVKQRPGQGLEWIGVINPGSGGTNYNEKFKGKATLTADKSSSTAFMQLSSLTSDDSAVYFCARSYYYGSFAMDYWGQGTSVTVSQ
VL: DVQMTQTISSLSASLGDRVTISCRASQDIGNYLNWYQQKPDGTVKLLIYYTSRLHSGVPSRFSGSGSGTDYSLTISNLEQEDIATYFCQQGNTLRTFGGGTKLEIKR
notes: also called mAb 25C8
B2: monoclonal antibody 38B5 (antibody, V domains shown)
VH: QIQLVQSGPELKKPGETVKISCKASGYIFRNYGMNWVKQAPGKGLKWMGWINTYTGEPTYADDFKGRFAFSLETSASTAYLQINNLKNEDMATYFCARRGWLLTGGAMDYWGQGTSVTVSQ
VL: DIQMTQSPSSLSASLGERVSLTCRASQDIGSSLNWLQQEPDGTIKRLIYATSSLDSGVPKRFSGSRSGSDYSLTISSLESEDFVDYYCLQYVSSPWTFGGGTKLEIKR
notes: also called mAb 38B5
B3: monoclonal antibody 36B11 (antibody, V domains shown)
VH: QIQLVQSGPDLKKPGETVKISCKASGYIFRNYGMNWVKQAPGKGLKWMGWINTYTGEPTYADDFKGRFAFSLETSASTAYLQINNLKNEDMATYFCARDCGTSHYYAMDYWGQGT
VL: DIQMTQTTSSLSASLGDRVTISCRASQDISNYLNWYQQKPDGTVKLLIYYTSRLHSGVPSRFSGSGSGTDYSLSISNLEQEDIATYFCQQGNTFPLTFGAGTKLDLKR
notes: the VH entry is cut short at its C-terminus; also called mAb 36B11

Target: T1, human CEACAM1 (as used in Surface …)
Assay: Surface Plasmon Resonance

| Kd | koff | kon | Binder |
| --- | --- | --- | --- |
| 3.88 nM | 0.000193 s⁻¹ | 49600 M⁻¹ s⁻¹ | B1 |
| 0.589 nM | 0.000482 s⁻¹ | 818000 M⁻¹ s⁻¹ | B2 |
| 1.42 nM | 0.000108 s⁻¹ | 76100 M⁻¹ s⁻¹ | B3 |
